Source: FireProtDB (doi:10.1006/jmbi.1999.2582)
Values joined by “and” are separate entries in the source; they are usually repeats but may differ in a detail not shown here. Identical values can stand only once.

Conditions: Myxococcus xanthus, Mops-NaOH 25 mM, CaCl2 3 mM, transition: 3, reversible: Yes, whole UniProt chain shown

B1: Development-specific protein S wild type, P02966 (protein)
chain: MANITVFYNEDFQGKQVDLPPGNYTRAQLAALGIENNTISSVKVPPGVKAILYQNDGFAGDQIEVVANAEELGPLNNNVSSIRVISVPVQPRARFFYKEQFDGKEVDLPPGQYTQAELERYGIDNNTISSVKPQGLAVVLFKNDNFSGDTLPVNSDAPTLGAMNNNTSSIRIS
denaturant m value (pH 2, 20 °C, Urea, Absorbance): 2.87 kcal/mol/M | denaturant midpoint (higher = more stable) (pH 2, 20 °C, Urea, Absorbance): 2.2 M | unfolding free energy (pH 2, 20 °C, Urea, Absorbance): 6.21 kcal/mol | Tm (pH 2, Thermal, CD): 52 °C | denaturant m value (pH 7, 20 °C, Urea, Absorbance): 1.2 kcal/mol/M and 1.43 kcal/mol/M and 1.91 kcal/mol/M | unfolding free energy (pH 7, 20 °C, Urea, Absorbance): 5.02 kcal/mol and 7.41 kcal/mol and 3.59 kcal/mol
